Test results as given in the supplement of paper PMC9732359.
± gives the uncertainty stated by the source.

Test: protein stability index of a GFP-peptide fusion (yeast GPS) (PSI 1-4); higher = more stable; sorted into four equal gates, so the index is relative within each strain
Outline: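 For each peptide, the protein stability index sums the read frequency in every gate after multiplying it by the gate number. Read frequencies came from plasmids that were PCR-amplified from each gate and Illumina-sequenced, with reads assigned to strains by barcodes. The gates were four equal bins of GFP/Cherry fluorescence ratio applied to mid-log yeast in leucine-free medium carrying a pooled library of tiled 17-residue yeast protein peptides fused downstream of GFP on a Cherry-expressing plasmid.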

Sequence	protein stability index (doa10∆)	protein stability index (pdr5∆)	protein stability index (san1∆)	protein stability index (ubr1∆)
LMEIHNILKVDSNSSSS [RGR1]	2.58 ± 0.06	2.67 ± 0.06	2.63 ± 0.064	2.42 ± 0.049
DNFSPHQNVIIGSNGSG [SMC3]		2.89 ± 0.14	2.78 ± 0.088	3.28 ± 0.079
NQFLKIKKKRKELFEKT [SMC1]	3.06 ± 0.15	3 ± 0.11	2.96 ± 0.12	3.29 ± 0.16
GEKTLSSLALVFALHKY [SMC4]	2.57 ± 0.054	2.48 ± 0.066	1.9 ± 0.12	2.98 ± 0.051
SKAPAEKKPAAKKTSTS [HTB1]	3.17 ± 0.13	3.01 ± 0.069	2.83 ± 0.08	3.33 ± 0.11
VPSTTNVNMTVNTMGTG [MED6]	3.23 ± 0.3	3.37 ± 0.11	2.91 ± 0.17	2.61 ± 0.13
KRYANHTQDIIGGMRVD [RET1]	3.11 ± 0.069	3.41 ± 0.075	3.19 ± 0.049	3.37 ± 0.049
TKKKRKPTEVNDSENNS [ITC1]	3.26 ± 0.063	3.21 ± 0.081	3.16 ± 0.045	3.27 ± 0.054
KGGSLYGLGLIYAGFGR [RPN2]	2.15 ± 0.095	2.28 ± 0.086	2.35 ± 0.063	2 ± 0.062
FLSSFDDVLQTIITDCA [YJL039C/NUP192]	2.43 ± 0.045	2.07 ± 0.049	2.03 ± 0.062	2.38 ± 0.034
YRPLTPSSEVYSPIEKE [RRP6]	2.74 ± 0.071	3.03 ± 0.064	2.69 ± 0.073	2.91 ± 0.066
LIEPLPTESYLQYIIHD [BRR2]	2.42 ± 0.083	2.96 ± 0.065	2.58 ± 0.096	2.49 ± 0.049
NHWRQNKGRAVYINPSG [BRR2]	2.97 ± 0.12	2.78 ± 0.089	2.85 ± 0.074	3.16 ± 0.1
RYFFWLQEKNSGNLPLN [RPN13]	3.04 ± 0.16	3 ± 0.085	2.81 ± 0.063	2.87 ± 0.11
GRVKALEQFMERNNIGE [YDL116W/NUP84]	2.78 ± 0.12	2.68 ± 0.08	2.75 ± 0.15	3.07 ± 0.1
DEINTAQDKWHLLPAFL [RET1]	3.51 ± 0.16	3.31 ± 0.13	3.29 ± 0.07	
QQIPLLCYMAPMTVKLV [POP3]	1.63 ± 0.052	1.57 ± 0.047	1.78 ± 0.072	1.53 ± 0.057
MKYVRETSGVTTALLKD [MED8]	2.72 ± 0.099	3.31 ± 0.12	3 ± 0.081	2.21 ± 0.24
FEYLATVMYQRRSKMNP [PRE4]	2.11 ± 0.12	2.72 ± 0.21	2.6 ± 0.15	2.57 ± 0.28
KQTADWLAEKFQKETNM [PRP28]	2.57 ± 0.2	3.12 ± 0.14	3.43 ± 0.091	3.16 ± 0.21
SLEDPQVRKKQIETINF [YDL116W/NUP84]	1.72 ± 0.12	1.82 ± 0.088	2.19 ± 0.11	2.23 ± 0.19
IRDLEKLYDKTENDIKA [RPT4]	2.66 ± 0.18	2.6 ± 0.21	1.91 ± 0.22	2.43 ± 0.22
TCVSMAPIQLKIDLLSG [RGR1]	1.67 ± 0.046	1.84 ± 0.062	1.87 ± 0.081	2 ± 0.038
SLDAREANFDLINIDTS [RPC40]	3.5 ± 0.078	3.22 ± 0.066	3.18 ± 0.058	3.04 ± 0.071
KNWQNVGSLVVKSSMGP [RPL1A]	2.1 ± 0.046	2.39 ± 0.051	2.7 ± 0.064	2.29 ± 0.045
KDAEDETSSDGSKSDGS [RPN1]	3.38 ± 0.051	3.41 ± 0.054	3.64 ± 0.047	3.29 ± 0.035

Sequence	protein stability index (doa10∆)	protein stability index (pdr5∆)	protein stability index (san1∆)	protein stability index (ubr1∆)
LKWSACTSLMDIIVAIK [IRR1]	2.65 ± 0.14	2.72 ± 0.057	2.44 ± 0.16	2.83 ± 0.071
PNTTKTKLRAFVYNKVN [YGR119C/NUP57]	2.47 ± 0.21			
VAAKWNTSLISLFTYFR [PRP8]	1.7 ± 0.064	1.97 ± 0.095	1.74 ± 0.18	2 ± 0.039
SLYTSREPRVVSALQML [PUP1]	2.66 ± 0.11	2.86 ± 0.065	3.03 ± 0.061	2.92 ± 0.048
VSKKWAAAAVCEKWAAS [RPL14A]	2.42 ± 0.083	3.04 ± 0.15	2.6 ± 0.094	2.17 ± 0.077
PAKVEDVQKSSDSSSED [YLR335W/NUP2]	2.84 ± 0.1	2.41 ± 0.097	2.4 ± 0.11	1.65 ± 0.053
ESVPTPANAEPQAVTIT [ITC1]	2.88 ± 0.084	2.92 ± 0.075	2.62 ± 0.063	3.18 ± 0.16
DETTVPSYYYYVDPETT [ROX3]	2.99 ± 0.08	3.04 ± 0.072	3.01 ± 0.049	3.25 ± 0.065
GRHVATCSSDQHIKVFK [YGL100W/SEH1]	2.71 ± 0.066	2.76 ± 0.059	2.57 ± 0.08	2.75 ± 0.052
INDFKKIGRENENENED [POP5]		3.38 ± 0.22	2.76 ± 0.19	2.49 ± 0.27
NNDQKRQQAYKTAQTLD [YJL041W/NSP1]	3.14 ± 0.071	3.17 ± 0.063	3.33 ± 0.053	3.23 ± 0.047
ELQKSLSLEEVEGHLFE [FAS1]	3.16 ± 0.11	3.32 ± 0.16	3.35 ± 0.061	3.08 ± 0.098
PSPKKVAIDQDKITLHD [SIR4]	2.36 ± 0.064	2.53 ± 0.064	2.27 ± 0.079	2.88 ± 0.05
SGTSVFEVEMILMQQQM [SRP54]	3.3 ± 0.084	3.23 ± 0.071	3.18 ± 0.07	3.22 ± 0.098
ISFAIYSALNSTYLPKL [RRP42]	2.1 ± 0.054	2.3 ± 0.048	2.05 ± 0.058	2.34 ± 0.039
EAESLLQFHVATYMDND [RPO21]	2.82 ± 0.1	2.7 ± 0.13	2.7 ± 0.073	2.94 ± 0.15
KFFMKHGLILELQKIWQ [SRB5]	2.94 ± 0.096	3.02 ± 0.089	3.32 ± 0.069	3.18 ± 0.037
VGEKLVVVVLEEPSASI [SIR3]	3.07 ± 0.076	2.94 ± 0.087	3.2 ± 0.052	3.1 ± 0.13
LINIDTSIANAFRRIMI [RPC40]	2.28 ± 0.043	2.83 ± 0.054	3.14 ± 0.046	2.89 ± 0.049
NYDCKVISIVGGHSLEE [PRP28]	2.93 ± 0.055	2.91 ± 0.059	2.88 ± 0.042	2.83 ± 0.041
GIKKHSLWRRTVYSLSQ [YDL116W/NUP84]	1.44 ± 0.066	1.29 ± 0.071	1.29 ± 0.14	1.48 ± 0.041
KTKAMSLSIEENIPVAL [POP1]	2.92 ± 0.079	3.01 ± 0.099	3.22 ± 0.1	3.17 ± 0.092
EVTKGEKTYTKAPKIQR [RPS6A]	3.17 ± 0.18	3.19 ± 0.14		3.53 ± 0.13
NRAMEYDALLSINVHSN [RET1]	2.58 ± 0.061	2.41 ± 0.064	2.29 ± 0.07	2.68 ± 0.045
STYKHDRGIANIRNNIE [SRB4]	3.41 ± 0.19	3.27 ± 0.14	2.95 ± 0.14	3.49 ± 0.13
KDMKLLRYYKNIWLNNK [NUT1]	2.01 ± 0.065	1.65 ± 0.074	1.97 ± 0.15	1.28 ± 0.054
